In experiment [1] the target is Bs-MotS_(68–242), periplasmic fragment of the stator B-subunit MotS from Bacillus subtilis (Bacillus subtilis). In words: SEC; Superdex 75 10/300 GL, 20 mM Tris-HCl pH 8.0 with 300 mM NaCl, 0.6 mL/min; size markers ovalbumin (43 kDa) and IgG (158 kDa). Background: Size exclusion chromatography separates by hydrodynamic size, large species first.
The target is the same in experiment [2]. In words: crystal structure; protein purified in 150 mM NaCl; crystals from 1.26 M ammonium sulfate, 0.1 M HEPES-NaOH pH 7.5, 293 K; solution containing 92 mM NaCl; 1.89 Å.
The target is the same in experiment [3]. In words: crystal structure; protein purified in 300 mM KCl; crystals from 40% PEG-300, 0.1 M Na2HPO4/citric acid pH 4.2, 293 K; soaked in 40 mM NaCl/300 mM KCl; 1.90 Å.
Experiment [4] shares this target. Kind of experiment: crystal structure; protein purified in 300 mM NaCl; crystals from 20% PEG-8000, 0.1 M HEPES-NaOH pH 7.5, 293 K; soaked in 300 mM NaCl; 1.89 Å.
For experiment [5] the target is unchanged. Kind of experiment: SEC; Superdex 75 10/300 GL, 20 mM Tris-HCl pH 8.0 with 300 mM KCl (no Na+), 0.6 mL/min; size markers ovalbumin (43 kDa) and IgG (158 kDa).
Experiment [6] addresses MotS_(68–242)(D70A) (Bacillus subtilis). In words: SEC; Superdex 75 10/300 GL, 20 mM Tris-HCl pH 8.0 with 300 mM NaCl, 0.6 mL/min; size markers ovalbumin (43 kDa) and IgG (158 kDa).
The target in experiment [7] is MotS_(68–242)(D70A/E75A) (Bacillus subtilis). The description is as above.
The target of experiment [8] is MotS_(68–242)(E75A) (Bacillus subtilis). Described as above.

Stoichiometry N data for four substances are collected here from publication PMC11853200.

As usually defined, the stoichiometry N is a count of units in the complex or per binding partner.

Turning to “Bs-MotS_(68–242), periplasmic fragment of the stator B-subunit MotS from Bacillus subtilis (domain or fragment)”, the stoichiometry N in experiment [1], in experiment [2], in experiment [3], in experiment [4] and in experiment [5] was 2 each time.
Substance “MotS_(68–242)(D70A) (domain or fragment)” had a stoichiometry N in experiment [6] of 2.
In experiment [7], “MotS_(68–242)(D70A/E75A) (domain or fragment)” registered a stoichiometry N of 2.
On to “MotS_(68–242)(E75A) (domain or fragment)”, for which the stoichiometry N in experiment [8] stood at 2.
